test: protease stability score; higher = more stable; yeast display proteolysis, trypsin and chymotrypsin;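 further: log10 excess protease needed over predicted unfolded state with 0 meaning unfolded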

Going from “EEELLERIKTFVKVYEHGDFKRLHRNLDKDVRVVVGDKHVRGREEAVRDMSEELRNMDQKIDFKTMHITNGKANLDFHFQNTVNGQPRRDRAHLIIRLHNGKFQEIKIQFSEEQERRQKG” to “EEELLQRATEFLHAQETNDPKRLKEQADPNARFRVGDKTIHGMDEYVRQLEQTEREMKVSLEIKHVTLTGDKADVEAEVTKDRNGRPDRFRVRYEFEARNGKFVDVRIQEDR”, the protease stability score falls from 0.608 to 0.336.

First: EEELNKVFEDLLEAEKTGDPDKIMRYFDPNARVSYGDKHIHGREEIRKDADRRKEHMRRDIHDYRIDARGDKVRFTADFTQTHNGQPRRHRMRMEVRVKGDKFRHFRIDEDG
Second: EEELQKKASEFIRLQQKGDSEEVMKNVDPNARINVGDKVYDGREQLAKDLHRSKRESRMHFDLKSISVENGKVDVRARMHVVENGQPRRFRVRIIFHQENGRITHFQYHTDD
The protease stability score of the first is lower: 0.083 for the first, 0.258 for the second.

Going from “EEELRHTAHELQKAYEENDPEKILENLDPNAQVQIGDRRVHGRHEIRKLMEHFERQARVRVHDVKVDVHGNKINIQVDAEQNHNGEPRSFTVQAEMTMHNGRVKSIDMKIQG” to “EEELRNVYRDLLEAEERGNPDDIKRLVDPNARLQIGDKEIHGREHLMRFVEEVRKEIRFEIDRLDVTATGETAKVDARVKQNHNGQPESWHYTVQVKYHNGRIVNLRMRRTS”, the protease stability score rises from 0.612 to 1.31.

First: EEELVKKAKTFMKQEEDGNPEKLKEYADENVRMHVGNKEVRGMDQYAEDVRRKREEARFSFKSIDAKASGDKITVRATLTFNVNGKPVEIDMTIILKLHNGRLKFLKVRVDPDEERRLES
Second: EEELVKRLKELFEAYQTGDEHQLKDLMDPNVRANIGDKTFHGREKLITHIKRYLDELDFQLKSVTFRLSGDHAVVTFEIEVDVNGVPRSFRFRFHIKMSNGKVTEIEIQFDPERQKKLES
The protease stability score of the first is lower: 0.595 for the first, 1.38 for the second.

Going from “EEEMVKHIKRVLENNDEERRAQLADKDAHARVGDRHVHGREELEKIVHHIKRRVDHLEVKDVKADGNTIEADVVMQVDGRTMQYNLTIILHNGTIKSVTIKVRNEEQKKLMEELFG” to “EEENFNRANEFMKAVETNDPDKLKHNADENVQITYGDKSYQGRESWAKDLQRKLKHMRWRYEFKSYHDTGDSVDVSLRVMATVNGKPRDFHLRMIIHFKNGKIKNIELRLDPDELDKLES”, the protease stability score rises from 0.317 to 0.648.

First: EEENQKLAKKFITAVNKGNPKELNENVDPNARLVIGDKTIHGRETLDRWAKKVKDDMRNHWHVTSLRVSNGDIKADVKVVINHNGKPDDFTLDMTMEVHNGKIKRMDARDSQ
Second: EEENQQIAEDVVDVLRTGDHEKFMHMADPNVKVVIGDKQYRGREDFSKIVKTWKDQMRLHIQIKDVKVEGDEVHVEADYLMKHNGKPVRDTITLVIRFDNGKIKEVQYEVDEDVLRKLES
The protease stability score of the first is lower: 0.157 for the first, 1.14 for the second.

Going from “EEENSKLMEEIVKAISNGNPDRVRENMDPNARARYGDKRIHGMENILTQIERRWRQIRIQVDDVKLSVENGTINVDIQQRNDNNGQPDNFRLEASASVENGKVKEMNVVKRP” to “EEENVKLVERFLKAVLEGDEDQLRRLMDPNARVRVGDKVLTGRDRVAEHFKERSQQWQFHIDVKHVSVNGDHIIMHFQFSMTVNGQPRSATMTAVFRVHNGRIQQVEFRLPEEDQKTIRG”, the protease stability score rises from 0.014 to 0.811.

Going from “EEENVKVAQEIINIEDRGDSDQIHRLFDPNAHWTVGDQDIHGRETWLTKFRKEREEMRVRFRTLHFNAHNGRAVVRVEQEVTHNGTPTTKVYIMKVEFRNGKVKSIVFQSDG” to “EEEQITKLEEVLKDVETGDPNKLIDNFDPNVRYDYGDKKYHGMTNWAKDVVSKAKEQHVTRHVTDVKVQGNHASMTADVNNDHNGRPHKQKQDIQFTFHNGKIKNVHVQETK”, the protease stability score falls from 0.235 to -0.667.

First: EEEQLHNVVRALNQNDFDKFRKLIDPNARVVVGDKSWHGREDLSNYIKQLQDHVDHRTVKDVKWHNGKIHADVEQTVNGKKMRFVFQAVVKGDKVKELNMKFRDERVETLMRKVLR
Second: EEEQLKILQELRKALQDNDSERMKELFDEDVKVQVGDKTITGREKVVDDLRRKAEEQRIQYVTMSARAENGHITVRLQFVNTHNGRPHRRERKLDITLHNGKFKSARYDNDG
The protease stability score of the first is lower: 0.14 for the first, 0.842 for the second.

Going from “EEEQLKTVKQWQENEKTGNEEELKKQADPNAKFRIGDHEVRGMENYAHDVIRRVKDARVDYETISHDVNGDRVVIRAVYRMNHNGRPSSYEYTVHYEMHNGKMKNVTVNKRQ” to “EEEQQKVLEELFRVLQEGDEKRAIKLADPNAKFNVGDKQYNGMEEYARSVATEIRNIRVEIETMDARVQGDHVQVNIVVNYKINGQPFRMTIKVRANVHNGQVHELNMHVDEDQQRKLKT”, the protease stability score falls from 0.041 to 0.014.

First: EEERDKFAKILLHAILTGNEEQFKRLADPNATFNIGDRKIHGMERYTKQMKQEVDRIKIKVESVKISVSGNKITIDMVATFNVNGQPVTIRFVLDVTIKNGRVSELVLRVSDEQLQKMRR
Second: EEERQKKAEQWVHAYRHNNEDEIRQLADPNVRFNVGDTRITGRENVMKTLDDQMRHQRVRFHDIQIRVKGDKINITIDAEYESNGRPSRRTLSLEMHLHNGKISHARIDIQG
The protease stability score of the first is higher: 0.308 for the first, -0.128 for the second.

Compared with “EEESAQEFMKNLNTGNFEELNKMADENARMQVGDKTFQGRHQIETLLKTLKKQIDHVSFKSVEMNGDKVDAKVVFQVNGQHFEVIVKVDVRGDRVTHVTYEFTNEDQEERFKRAVQ”, “EEESHQVAENIARILQTNDPRRLAELMDENARVRVGDTQLSGREDIEKQMDKEMKEIRVEIKNYEIDAKGEKIDIDVDQVFVHNGKPDRQRVKYDFDLRNGQIKRASVSVHK” is lower in protease stability score: 1.35 for the first, -0.188 for the second.

Going from “EEETVKHLVQLFRTGDWDQLAKEMRDNVEVIIGDKRLHGRENAEQLARILKKHIDHQSYESMTFHNGKLVMKYEFVFNGRRVRARLVVNVHNGKIVNMQLDFTDPRDERLWKKVVE” to “EEETVKRMAEHVNHALQENDPKKMNDLFDENVQVDVGDTRIHGREDLTKYVKTFKQRVDQVEIQRVDVQGNTVVILMVLEHNGHRRQVVVIMHFHNGKVKEMRVTDK”, the protease stability score falls from 1.66 to 0.097.

First: EEEVAKHALEIMITGDPKQIKEMVDENAHVKVGNKEWHGREHMVHWAEQLHTQVDHREVRSMEVNGNTARVDLVVTINGHHIRFILRATIHNGRVQHLSLEVTNEEQQTQWERNLS
Second: EEEVEDQAKKYAKALHDNDPKTLSKLADKDAEFRYGDHQFHGREEVEKHWEKELKEIEVDWRVVDVKAHNGQVRIRFQAHRHHNGDPKNDNRKASARVTNGRIKKIEWVEDH
The protease stability score of the first is higher: 0.075 for the first, -0.059 for the second.

First: EEEVEKAAERVAEVMKDNNPERVEELFDPNAHITVGDRTLHGREELSKHYKTMTDQWRIQIDRFSVEDHGSTVVIRIDFEADHDGRPEKREVIIKLSVSNGRVSWAIFKVDQ
Second: EEEVKRKMKEYFDVARHGDPDRLREYVDENARIHIGDKVIHGMSDAADHLAQHYKEIRFDYTRIDVKAEGDQVKVDIDVVVNHNGRPEQVHLHWEARFTNGRVKHMKVQRQK
The protease stability score of the first is higher: 0.734 for the first, -0.108 for the second.

Compared with “EEEVQHKIKQLLKNNDWTTLADQVDPNARMVVGDKTVTGREQIQTIARRIQERVDHVEFKQLTVQGDHIDVVMVVNINGEHIKMHFIFRVHNGHIKHVEMQATDPRDQKKLKDLLE”, “EEEVSKRAREFVEAYQTGNEDKMHRLVDENADAQYGDKHIHGMTEIKRHVKRLTEEIRVQVESMDVKANNGHVRVRVHLVLHINGNPIDVTVIIVMRFKNGTIRSVQFRMPEEARDTIRK” is lower in protease stability score: 1.54 for the first, -0.077 for the second.

Going from “EEEVVKEVTKAAKTGNFEKLLRLADPNVEMRIGDKTFHGRTELKDALRDIKQNADHIELKSLDSHNGRLEVDLVVNVNGKDVRFILRVSVHNGRITQMSVESRDTDFKKVLDEMLG” to “EEHDERTMHRLVETNDWETISRNADKDVKFQVGNKSYHGKEEFTEVLRKITKRADHIEYRSFNSHNGRIDVDYVFVVNGKEVKVFVQIQVHNGRIKHMRMRATNPDQQQELVDQLS”, the protease stability score falls from 1.91 to 1.44.

Going from “EEHIKEVLDRVREAWRKNNPDDLKRNFDPNARFNIGNKRYHGMEHFVEDVARLLHEIHVEIHYHHITFDGNEARFSYDAVFNVDGRPIRDSMSRRVILHNGKIVDMKVDVDPKELDKKLK” to “EEHLESLVRNLEEAVKKGNPEEMKKNLDKNARMVYGDKRLHGMSDILTEIEKRREHMRLEHEVKSIDNQGNKAKVTARLDVNVNGHPVDVDFIIHIKVHNGHVLEIVYQLPPEAHEKLKT”, the protease stability score falls from -0.093 to -0.278.

Going from “EEHLKHVVEELWKAMQTGDEDKIRRNADPNAHFSIGDKVIQGRERFAQDVRQTYDEIRVDIKIHRMNIQGEKVKVRFTFEQKVNGKPRSDENSAENTLHNGKVEEMNITIDPDKQRKFES” to “EEHLKQTFKEYMENYRTGNEEQLHSMVDEEAKFSYGDKKIHGRTEAIKQLVRRREEMRWDVQIKDMEVHNGRIEVDARVRFKHNGQPDDQKVVFRAVIHNGRFKMISEQYQP”, the protease stability score rises from -0.43 to 0.376.

Compared with “EEHLQERLTKLNEAEQKGDPKKILEQVDPNARVEVGDKTYHGMDRYARRVAKEMNEMRVEVHIKDLKVRGNNIHAEMSATHTKNGKPSHNEFTLVVVWNNGRVTSIVVTHKS”, “EEHLQKTVEEMIKLIRHGNEHKVQENIDPNARIVIGEKRIRGRETFAHLLSKRHKEQRYEVREIKLTVQGEKVKVSMDVVADINGKPIRFSIDMFLHASNGKVKDIQYRISEEQRDKQQG” is lower in protease stability score: 0.717 for the first, -0.033 for the second.

Going from “EEHMEDSFRKWKDNLRTNDEKSLEKMADPNATFDVGDKRFRGMHKYVHDLVNTLRSMRVDIKINSIDVQGDKIKARAQATVYHNGRPQRYTFSFEIKINNGHIQRLVRKDDQ” to “EEHQQKLIEEVLKAMDSGDEDRIKELVDPNAEFHVGDKTWHGMQDWARHVREEVEQIDFTWVNMEIRVKNGTVIMKARFEETRDGQPRTQNVNLRARVHNGRLTSMENDQHG”, the protease stability score rises from -0.035 to 0.375.

First: EEHQTKEWSKMLEVMTKGDKDKFRERADPNVRARVGDRTLHGWENVVRTELRRQHEISIDIHEMDVRSEGDKVVARYEFRQNQNGRPRRRDVTVTFRLHNGRLQEQHVQDTG
Second: EEHVKHIVDQLIKVLQHNDEKLWERLVDPNAEIRVGDKSIRGRERFSEEVRRQKHQARMQWKSVQVDVHGDKAVLHFSAEFQVNGQPADFDVTMHIQVHNGTVKRMFVQVPEKDVQRKTS
The protease stability score of the first is lower: 0.148 for the first, 0.459 for the second.

Going from “EEHVLTRFNSNMSNNNFNHIRDMADENAKMRVGDQEYHGRDNIHRLLEELKTQADHIQVRDYNHRGEHVHVDVEMVINGQKLVARWHAEIKNGRIKEMVLQFTNEEQEKTVRKALR” to “EEHVMRIVTNQLEAIKHGDEDRVRDLADPNARFHVGDKSIHGMEKYANDLRSEMEHMQVEFNLQSVTVEGDKVVITFEAQFNQNGKPKNYREVFRVEAQGDKIKDYRQERKD”, the protease stability score falls from 0.302 to 0.001.

Compared with “EEKAEELVERFITAIETNDPDEVVNNIDPNARLRVGDKHVSGRDHQRQQVEEQERHMRVKYQHVRIDVTGDHARVHVVQVDNHNGKPRRFKYSASFVVQGDKIKHASQTTTE”, “EEKATRIAHELLSAVERGDEDRAEENFDENAQFQVGDKDIHGREQMKHFVKTVKEQSRLDMHITDVQDRPGHANVKATAREDNNGNPNNIRITMRASVSNGRIQSMQINYTD” is lower in protease stability score: -0.163 for the first, -0.638 for the second.

Compared with “EEKIVDILERMVTALHTGDPDTVHENLDPNAHVVIGDKEFTGMDTMHRTLERQKKEIRIQINSYSVHAQGNKADIDIDMVNEHNGHPDRNRYRVDAKVHNGKIKQVRYEEVS”, “EEKLEEQVEELLKNLDTGDENRARQLADPNVRARVGDKEYHGMEQFIKDQMDQRRNARIEVKDLRSEHHGDKITVDLSYKAQHNGRPTTVQREVTFHAHNGKFRQMKIEQSG” is lower in protease stability score: -0.38 for the first, -0.521 for the second.
